Experimental data taken from PMC3702631 (Structure (London, England : 1993), 2013).

Target: the molecule itself
Test: SEC

B1: full-length mouse TBK1 (GST tag cleaved) (enzyme, UniProt Q9WUN2 1-729, looked up)
chain: MQSTSNHLWLLSDILGQGATANVFRGRHKKTGDLYAVKVFNNISFLRPVDVQMREFEVLKKLNHKNIVKLFAIEEETTTRHKVLIMEFCPCGSLYTVLEEPSNAYGLPESEFLIVLRDVVGGMNHLRENGIVHRDIKPGNIMRVIGEDGQSVYKLTDFGAARELEDDEQFVSLYGTEEYLHPDMYERAVLRKDHQKKYGATVDLWSVGVTFYHAATGSLPFRPFEGPRRNKEVMYKIITGKPSGAISGVQKAENGPIDWSGDMPLSCSLSQGLQALLTPVLANILEADQEKCWGFDQFFAETSDVLHRMVIHVFSLQHMTAHKIYIHSYNTAAVFHELVYKQTKIVSSNQELIYEGRRLVLELGRLAQHFPKTTEENPIFVTSREQLNTVGLRYEKISLPKIHPRYDLDGDASMAKAVTGVVCYACRTASTLLLYQELMRKGVRWLVELVKDDYNETVHKKTEVVITLDFCIRNIEKTVKVYEKLMKVNLEAAELGEISDIHTKLLRLSSSQGTIESSLQDISSRLSPGGLLADTWAHQEGTHPRDRNVEKLQVLLNCITEIYYQFKKDKAERRLAYNEEQIHKFDKQKLYYHATKAMSHFSEECVRKYEAFKDKSEEWMRKMLHLRKQLLSLTNQCFDIEEEVSKYQDYTNELQETLPQKMLAASGGVKHAMAPIYPSSNTLVEMTLGMKKLKEEMEGVVKELAENNHILERFGSLTMDGGLRNVDCL
  stoichiometry N: 2

B2: mouse TBK1 C-terminal truncation, residues 1-657 (GST tag cleaved) (domain or fragment, UniProt Q9WUN2 1-657, looked up)
chain: MQSTSNHLWLLSDILGQGATANVFRGRHKKTGDLYAVKVFNNISFLRPVDVQMREFEVLKKLNHKNIVKLFAIEEETTTRHKVLIMEFCPCGSLYTVLEEPSNAYGLPESEFLIVLRDVVGGMNHLRENGIVHRDIKPGNIMRVIGEDGQSVYKLTDFGAARELEDDEQFVSLYGTEEYLHPDMYERAVLRKDHQKKYGATVDLWSVGVTFYHAATGSLPFRPFEGPRRNKEVMYKIITGKPSGAISGVQKAENGPIDWSGDMPLSCSLSQGLQALLTPVLANILEADQEKCWGFDQFFAETSDVLHRMVIHVFSLQHMTAHKIYIHSYNTAAVFHELVYKQTKIVSSNQELIYEGRRLVLELGRLAQHFPKTTEENPIFVTSREQLNTVGLRYEKISLPKIHPRYDLDGDASMAKAVTGVVCYACRTASTLLLYQELMRKGVRWLVELVKDDYNETVHKKTEVVITLDFCIRNIEKTVKVYEKLMKVNLEAAELGEISDIHTKLLRLSSSQGTIESSLQDISSRLSPGGLLADTWAHQEGTHPRDRNVEKLQVLLNCITEIYYQFKKDKAERRLAYNEEQIHKFDKQKLYYHATKAMSHFSEECVRKYEAFKDKSEEWMRKMLHLRKQLLSLTNQCFDIEEEVSKYQDYTNELQET
  stoichiometry N: 2
